Reference: patent publication US20210208163A1

Target: recombinant mouse integrin αvβ3 (R&D Systems, 7889-AV-050) (mouse) (UniProt P43406)
Experiment: SPR, mutant ICOSL immobilised, αvβ3 as analyte, 0.2 mM Ca2+ and 0.1 mM Mg2+, steady-state affinity fit

recombinant mouse integrin αvβ3 (R&D Systems, 7889-AV-050) (mouse), sequence (P43406 31-988 limits assumed, chain 1 of 2): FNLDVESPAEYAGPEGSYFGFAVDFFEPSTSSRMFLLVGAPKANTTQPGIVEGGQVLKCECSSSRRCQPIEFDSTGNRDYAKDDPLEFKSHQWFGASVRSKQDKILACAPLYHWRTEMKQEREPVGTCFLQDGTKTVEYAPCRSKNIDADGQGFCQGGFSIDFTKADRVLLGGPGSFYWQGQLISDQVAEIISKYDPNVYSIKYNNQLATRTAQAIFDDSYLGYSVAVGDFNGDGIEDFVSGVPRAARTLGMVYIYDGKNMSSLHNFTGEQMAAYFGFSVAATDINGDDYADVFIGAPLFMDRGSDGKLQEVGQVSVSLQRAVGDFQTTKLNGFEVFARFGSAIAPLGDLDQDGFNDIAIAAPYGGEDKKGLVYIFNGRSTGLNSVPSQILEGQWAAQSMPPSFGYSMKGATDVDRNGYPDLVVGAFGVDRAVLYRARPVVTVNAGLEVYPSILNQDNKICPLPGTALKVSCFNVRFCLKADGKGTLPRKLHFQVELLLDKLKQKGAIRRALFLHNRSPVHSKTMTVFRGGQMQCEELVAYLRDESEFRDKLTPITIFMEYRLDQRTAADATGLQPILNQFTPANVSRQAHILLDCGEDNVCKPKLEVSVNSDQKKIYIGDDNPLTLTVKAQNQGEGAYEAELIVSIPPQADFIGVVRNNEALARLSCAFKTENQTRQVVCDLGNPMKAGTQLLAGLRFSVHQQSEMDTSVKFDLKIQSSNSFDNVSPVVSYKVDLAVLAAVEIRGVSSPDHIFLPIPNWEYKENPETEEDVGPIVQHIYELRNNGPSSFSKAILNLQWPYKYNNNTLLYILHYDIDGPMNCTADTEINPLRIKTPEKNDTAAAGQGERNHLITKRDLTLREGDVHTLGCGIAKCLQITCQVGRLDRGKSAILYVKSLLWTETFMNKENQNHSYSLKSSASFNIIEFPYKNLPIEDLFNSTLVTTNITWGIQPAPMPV
recombinant mouse integrin αvβ3 (R&D Systems, 7889-AV-050) (mouse), sequence (O54890 26-717 limits assumed, chain 2 of 2, further chain): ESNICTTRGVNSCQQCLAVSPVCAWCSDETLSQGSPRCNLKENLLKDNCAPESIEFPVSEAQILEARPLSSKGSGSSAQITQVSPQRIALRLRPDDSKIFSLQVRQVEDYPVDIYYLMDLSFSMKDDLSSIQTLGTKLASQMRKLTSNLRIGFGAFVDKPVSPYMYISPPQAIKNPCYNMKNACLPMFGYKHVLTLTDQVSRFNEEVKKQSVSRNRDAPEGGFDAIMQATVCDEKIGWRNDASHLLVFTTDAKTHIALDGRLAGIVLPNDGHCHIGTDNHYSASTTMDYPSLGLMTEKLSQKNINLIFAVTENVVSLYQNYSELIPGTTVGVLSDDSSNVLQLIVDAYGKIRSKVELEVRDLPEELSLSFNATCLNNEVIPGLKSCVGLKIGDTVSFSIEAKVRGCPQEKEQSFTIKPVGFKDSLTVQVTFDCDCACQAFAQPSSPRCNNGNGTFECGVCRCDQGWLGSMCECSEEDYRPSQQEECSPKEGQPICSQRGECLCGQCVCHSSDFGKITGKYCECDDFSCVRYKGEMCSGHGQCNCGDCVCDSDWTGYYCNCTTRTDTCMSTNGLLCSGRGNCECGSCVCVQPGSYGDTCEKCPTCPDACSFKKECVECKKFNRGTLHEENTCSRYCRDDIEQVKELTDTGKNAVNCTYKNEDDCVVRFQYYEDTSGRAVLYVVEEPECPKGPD

Kd: 830 µM
Substance: RGD-mutated mouse ICOSL protein (RGD motif replaced with AAA) (from UniProt Q9JHJ8 44-322) (ligand)
